How the values were obtained:
[1] = target: Full-length TBEV C protein (residues 1-96), Kuutsalo-14 strain (tick-borne encephalitis virus (TBEV-Eu), strain Kuutsalo-14); assay: SEC
[2] = target: Truncated TBEV C protein C_(18-93), containing residues 18-93, Kuutsalo-14 strain (tick-borne encephalitis virus (TBEV-Eu), strain Kuutsalo-14); assay: SEC

| Substance | stoichiometry N [1] | stoichiometry N [2] |
| --- | --- | --- |
| Full-length TBEV C protein (residues 1-96), Kuutsalo-14 strain (natural protein) | 2 | – |
| Truncated TBEV C protein C_(18-93), containing residues 18-93, Kuutsalo-14 strain (domain or fragment) | – | 2 |

Reference: paper PMC9970071
